Reference: patent publication US20070219133A1

Columns and labels:
[1] = target: extracellular region of human F158 FcγRIIIa (human) (UniProt P08637); assay: SPR
[2] = target: His-tagged human V158 FcγRIIIa (immobilized on SPR chip) (human) (UniProt P08637); assay: SPR, His-tagged V158 FcγRIIIa immobilized
[3] = target: human FcγRIIIa on human PBMC effector cells (human) (UniProt P08637); assay: cell-based or functional assay
[4] = target: extracellular region of human V158 FcγRIIIa fused with GST (human) (UniProt P08637); assay: AlphaScreen competition
[5] = target: extracellular region of human F158 FcγRIIIa (human) (UniProt P08637); assay: AlphaScreen competition
[6] = target: extracellular region of human FcγRIIb (human) (UniProt P31994); assay: AlphaScreen competition, trastuzumab context
[7] = target: extracellular region of human FcγRIIb (human) (UniProt P31994); assay: AlphaScreen competition

extracellular region of human F158 FcγRIIIa (human), sequence (P08637 17-208): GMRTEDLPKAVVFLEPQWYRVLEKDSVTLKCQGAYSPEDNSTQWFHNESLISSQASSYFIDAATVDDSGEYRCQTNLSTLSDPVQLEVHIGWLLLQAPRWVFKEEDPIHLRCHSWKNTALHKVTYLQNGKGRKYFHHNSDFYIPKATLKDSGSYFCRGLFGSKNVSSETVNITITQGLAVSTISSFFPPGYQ
extracellular region of human FcγRIIb (human), sequence (P31994 43-217): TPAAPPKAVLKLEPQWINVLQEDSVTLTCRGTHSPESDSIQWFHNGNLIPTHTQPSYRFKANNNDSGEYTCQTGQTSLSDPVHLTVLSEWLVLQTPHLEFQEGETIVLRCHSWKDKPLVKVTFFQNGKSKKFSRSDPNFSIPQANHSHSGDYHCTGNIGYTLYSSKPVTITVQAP
His-tagged human V158 FcγRIIIa (immobilized on SPR chip) (human), sequence (P08637 17-208 F176V limits assumed): as the sequence (P08637 17-208) above, with F160V counted along it
extracellular region of human V158 FcγRIIIa fused with GST (human), sequence (P08637 17-208 F176V): as the sequence (P08637 17-208) above, with F160V counted along it

Row | Substance | FcγRIIIa Fold [4] [fold vs WT] | other results
1 | alemtuzumab Fc variant I332E (antibody) |  | Kd [1]: 0.072 µM; Kd [2]: 0.031 µM
2 | alemtuzumab Fc variant S239D/I332E (antibody) | 56.1 | ADCC EC50 (ng/ml), DoHH-2 targets, PBMCs heterozygous V158/F158 FcγRIIIa [3]: 3 ng/mL; ADCC Fold Improvement Over WT [3]: 3.3 fold
3 | alemtuzumab Fc variant S298A (antibody) |  | Kd [1]: 0.285 µM; Kd [2]: 0.052 µM
4 | alemtuzumab Fc variant S298A/E333A/K334A (antibody) |  | Kd [1]: 0.156 µM; Kd [2]: 0.039 µM
5 | alemtuzumab Fc variant V264I (antibody) |  | Kd [1]: 0.55 µM; Kd [2]: 0.064 µM
6 | alemtuzumab Fc variant V264I/I332E (antibody) | 12.5 | Fold [1]: 14 fold vs WT; Kd [1]: 0.052 µM; ADCC EC50 (ng/ml), DoHH-2 targets, PBMCs heterozygous V158/F158 FcγRIIIa [3]: 4 ng/mL; ADCC Fold Improvement Over WT [3]: 2.5 fold; Fold [5]: 15.6 fold vs WT; IC50 [5]: 0.0011 µM; Fold [4]: 12.8 fold vs WT; IC50 [4]: 0.0005 µM; Fold [2]: 4 fold vs WT; Kd [2]: 0.017 µM
7 | alemtuzumab Fc variant W313F (antibody) | 0.88 | 
8 | trastuzumab Fc variant E233D (antibody) | 0.85 | 
9 | trastuzumab Fc variant E272Y (antibody) | 8.7 | 
10 | trastuzumab Fc variant E283R (antibody) | 0.67 | 
11 | trastuzumab Fc variant E318R (antibody) | 1.06 | 
12 | trastuzumab Fc variant E333H (antibody) | 0.75 | 
13 | trastuzumab Fc variant E333T (antibody) | 0.78 | 
14 | trastuzumab Fc variant F275W (antibody) | 1.11 | 
15 | trastuzumab Fc variant K274E (antibody) | 6.11 | 
16 | trastuzumab Fc variant K274L (antibody) | 1.09 | 
17 | trastuzumab Fc variant K274R (antibody) | 1.41 | 
18 | trastuzumab Fc variant K274T (antibody) | 1.41 | 
19 | trastuzumab Fc variant K274Y (antibody) | 1.06 | 

Row | Substance | FcγRIIIa Fold [4] [fold vs WT] | other results
20 | trastuzumab Fc variant K326I (antibody) | 1.43 | 
21 | trastuzumab Fc variant K326T (antibody) | 1.88 | 
22 | trastuzumab Fc variant L234I/L235D (antibody) | 0.07 | 
23 | trastuzumab Fc variant N276E (antibody) | 0.87 | 
24 | trastuzumab Fc variant N276R (antibody) | 0.66 | 
25 | trastuzumab Fc variant N276S (antibody) | 0.41 | 
26 | trastuzumab Fc variant N276Y (antibody) | 0.56 | 
27 | trastuzumab Fc variant P230A (antibody) | 1.09 | 
28 | trastuzumab Fc variant P230A/E233D (antibody) | 0.92 | 
29 | trastuzumab Fc variant P230A/E233D/I332E (antibody) | 1.87 | 
30 | trastuzumab Fc variant S239D (antibody) |  | FcγRIIb Fold [6]: 4.47 fold vs WT
31 | trastuzumab Fc variant S239D/A330Y/I332E/K326E (antibody) | 64.1 | 
32 | trastuzumab Fc variant S239D/A330Y/I332E/L234I (antibody) | 22.4 | 
33 | trastuzumab Fc variant S239D/A330Y/I332E/L235D (antibody) | 7.04 | 
34 | trastuzumab Fc variant S239D/A330Y/I332E/V240I (antibody) | 28 | 
35 | trastuzumab Fc variant S239D/A330Y/I332E/V264T (antibody) | 17.7 | 
36 | trastuzumab Fc variant S239D/I332E (antibody) |  | FcγRIIb Fold [6]: 19.7 fold vs WT
37 | trastuzumab Fc variant S239D/I332E/A330I (antibody) | 59.1 | 
38 | trastuzumab Fc variant S239D/V264I/I332E (antibody) | 36.6 | FcγRIIb Fold [7]: 14.4 fold vs WT

Row | Substance | FcγRIIIa Fold [4] [fold vs WT] | other results
39 | trastuzumab Fc variant S239N/A330L/I332E (antibody) | 12.9 | 
40 | trastuzumab Fc variant S239N/A330Y/I332E (antibody) | 14.2 | 
41 | trastuzumab Fc variant S239N/S298A/I332E (antibody) | 32.1 | FcγRIIb Fold [7]: 5.15 fold vs WT
42 | trastuzumab Fc variant S324I (antibody) | 1.15 | 
43 | trastuzumab Fc variant S324R (antibody) | 0.71 | 
44 | trastuzumab Fc variant S324V (antibody) | 117 | 
45 | trastuzumab Fc variant S324Y (antibody) | 0.98 | 
46 | trastuzumab Fc variant T335D (antibody) | 2.79 | 
47 | trastuzumab Fc variant T335R (antibody) | 2.58 | 
48 | trastuzumab Fc variant T335Y (antibody) | 1.56 | 
49 | trastuzumab Fc variant V240I/V266I (antibody) | 1.72 | 
50 | trastuzumab Fc variant V264I/S298A/I332E (antibody) | 16.5 | 
51 | trastuzumab Fc variant V273I (antibody) | 0.79 | 
52 | trastuzumab Fc variant V302I (antibody) | 1.01 | 
53 | trastuzumab Fc variant V323I (antibody) | 0.83 | 
54 | trastuzumab Fc variant Y278E (antibody) | 0.9 | 
55 | trastuzumab Fc variant Y278T (antibody) | 1.87 | 
56 | trastuzumab Fc variant Y278W (antibody) | 0.41 | 
57 | wild type alemtuzumab (Campath), IgG1, expressed in 293T cells (antibody) |  | Kd [1]: 0.73 µM; ADCC EC50 (ng/ml), DoHH-2 targets, PBMCs heterozygous V158/F158 FcγRIIIa [3]: 9.9 ng/mL; Kd [2]: 0.068 µM
